Values of other authors, collected in patent publication US7452531B2, “Compositions and methods for tumor-targeted delivery of effector molecules” (Vion Pharmaceuticals, Inc., priority 1999, dated 2008).

Tested on: primary tumors
Conditions: 100 mg/kg/day

## angiostatin
  toxic side effects: without toxic side effects
  tumor growth: strong inhibition of tumor growth
